T1: human galectin-10 as coated in ELISA (soluble galectin-10; tag not given) (human, UniProt Q05315 1-142, limits assumed)
T1 construct: also called coated galectin-10; Gal10
T1 sequence: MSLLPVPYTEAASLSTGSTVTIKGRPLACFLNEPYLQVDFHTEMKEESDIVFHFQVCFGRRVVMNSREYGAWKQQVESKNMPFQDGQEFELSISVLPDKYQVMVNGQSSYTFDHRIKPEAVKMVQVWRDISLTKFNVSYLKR

T2: human galectin-10-His (recombinant human galectin-10 with TEV-cleavable N-terminal His-tag) (human)
T2 construct: SEC-MALLS: dimer in solution; also called Gal10-His; humanGal10-His
T2 chain: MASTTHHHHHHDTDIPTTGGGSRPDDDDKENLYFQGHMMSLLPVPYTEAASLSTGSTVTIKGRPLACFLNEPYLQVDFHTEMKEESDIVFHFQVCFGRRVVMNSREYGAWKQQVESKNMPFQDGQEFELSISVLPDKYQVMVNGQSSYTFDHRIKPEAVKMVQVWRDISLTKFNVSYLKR

B1: scFv 6A08 (periplasmic extract, Myc-tagged) (scFv, not shown: small tags and cut ends)
scFv: QVQLVESGGGLVQPGGSLRLSCAASGFTFSSYAMSWVRQAPGKGPEWVSAINRGGGSTYYADSVKGRFTISRDNAKNTLYLQMNSLKPEDAAVYYCATPGDRLWYYRYDYWGQGAQVTVSSGGGGSGGGGSGGGGSQTVVTQEPSLSVSPGGTVTLTCGLSSGSVTSSNYPGWYQQTPGQAPRLLIYNTNSRYSGVPNRFSGSISGNKAALIISGAQPEDEADYHCALNRVRGTYRVFGGGTHLTVL
B2: scFv 6F06 (periplasmic extract, Myc-tagged) (scFv, not shown: small tags and cut ends)
scFv: QVQLVESGGGLVQPGGSLRLSCAASEFTFSRYSMSWVRQAPGKGLEWVSTINSGGGSTSYVDSVKGRFTISRDNAKNTLYLQMNSLKPEDTAVYYCTKSQGGISFSTQYGMDYWGKGTLVTVSSGGGGSGGGGSGGGGSNFMLTQPSAVSVSLGQTARITCQGGNFGRYYANWYQQKPGQAPVLVIYKDSERPSGIPERFSGSSSGDTATLTISGAQAEDESDYYCQSGSVSDNAVFGGGTHLAVL
B3: scFv 6B06 (periplasmic extract, Myc-tagged) (scFv, not shown: small tags and cut ends)
scFv: QVQRQESGPGLVKPSQTLSLTCTVSGGSITTNYYSWSWIRQPPGKGLEWIGYIAYSGSTSYSPSLKSRTSISRDTSNNQFSLQLSSVTPEDTAVYYCARSRSSPTTFGMDYWGKGTLVTVSSGGGGSGGGGSGGGGSSSALTQPSAVSVSLGQTARITCQGGNFGRYYVSWYTQKPGQAPVLVIYQDSERPTGIPERFSGSSSGDTATLTISGAQAEDEADYYCQSGTSSDNIVFGGGTHLTVL
B4: scFv 6E10 (periplasmic extract, Myc-tagged) (scFv, not shown: small tags and cut ends)
scFv: QLQLVESGGGLVQPGGSLRLSCAASGFTFSSYWMYWVRQAPGKGLEWVSAINTGGGSTYYADSVKGRFTISRDNAKNTLYLQMNSLKPEDTALYYCARAGSGVAGTGYDYWGQGTQVTVSSGGGGSGGGGSGGGGSQPVLNQPSAVSVSLGQTARITCQGGNFGYYYVSWYQQKPGQAPVLVIYRDSGRPSGIPERFSGSSSGDTATLTISGAQAEDEADYYCQSGSSSDNAVFGGGTHLTVL
notes: also called 6E010
B5: 4E08 Fab (Fab, V domains shown)
VH: QVQRQESGPGLVKPSQTLSLTCTVSGGSITTSYYAWSWIRQPPGKGLEWMGVIASDGSTYYSPSLKSRTSISRDTSKNQFSLQLSSVTPEDTAVYYCALYIRGSSWSGWSAYDYWGQGTQVTVSS
VL: QPVLNQPSAVSVSLGQTARITCQGGNFGYYYGSWYQQKPGQAPVLVIYKDSERPSGIPERFSGSSSGGTATLTISRAQAEDEADYYCQSADSSDNPVFGGGTHLTVL
notes: VH on human CH1 constant domain (with part of the hinge region), VL on human lambda constant domain; also called 4E8; Fab 4E8
B6: 6F05 Fab (Fab, V domains shown)
VH: QLQLVESGGGLVQPGGSLRLSCAASGFTFSSYAMSWVRQAPGKGLEWVSAINSGGGSTSYADSVKGRFTISRDNAKNTLYLQMNSLKPEDTAVYYCATPGDRLWYYRYDYWGQGTQVTVSS
VL: QAGLTQPPSVSGTLGKAVTISCAGTSSDIGYGNYVSWYQQLPGTAPKLLIYKVSRRASGVPDRFSGSKSGNTASLSISGLQSEDEADYYCASYRYRNNVVFGGGTHLTVL
notes: VH on human CH1 constant domain (with part of the hinge region), VL on human lambda constant domain; also called 6F5; Fab 6F5
B7: 1D11 Fab (Fab, V domains shown)
VH: QVQLVESGGGLVQPGGSLRLSCAASGFTFDDYAMSWVRQAPGKGLEWVSGISWNGGSTYYAESMKGRFTISRDNAKNTLYLQMNSLKSEDTAVYYCAKDRNLGYRLGYPYDYWGQGTQVTVSS
VL: QSVLTQPPSVSGSPGETVTISCAGTSSDVGYGNYVSWYQQLPGMAPRLLIYEVNKRASGITDRFSGSKSGNTASLTISGLQSEDEGDYYCASYRSSNNAVFGGGTHLTVL
notes: VH on human CH1 constant domain (with part of the hinge region), VL on human lambda constant domain; also called Fab 1D11; Fab-1D11
B8: 1C09 Fab (Fab, V domains shown)
VH: QVQLVESGPGLVKPSQTLSLTCTVSGGSITTNSYYWSWIRQPPGKGLEWMGAIAYSGSTYYSPSLKSRTSISRDTSKNQFTLHLSSVTPEDTAVYYCARRPNWYRALDAWGQGTLVTVSS
VL: NFMLTQPSAVSVSLGQTARITCQGANLGRYYGIWYQQKPGQAPVQVIYGDSNRPSGIPERFSGSSSGGTATLTISGAQAEDEADYYCQSYESSTSPVFGGGTHLTVL
notes: VH on human CH1 constant domain (with part of the hinge region), VL on human lambda constant domain; also called 1C9; Fab 1C09

The binders below were run against T1, human galectin-10 as coated in ELISA … (assay: ELISA, scFv periplasmic extract on coated soluble galectin-10, anti-Myc-HRP).

| ELISA binding (OD values) [OD] | Binder |
| --- | --- |
| 3.5 | B1 |
| 3.8 | B2 |
| 3.7 | B3 |
| 3.7 | B4 |

Target: T2, human galectin-10-His (recombinant …)
Test: ELISA, Fab on coated galectin-10-His

| Bmax [OD] | EC50 [µM] | Binder |
| --- | --- | --- |
| 0.7 | 0.0256 | B5 |
| 0.8 | 0.0267 | B6 |
| 0.9 | 0.0016 | B7 |
| 1 | 0.0019 | B8 |

Target: T2, human galectin-10-His (recombinant …)
Test: BLI OctetRed96, Fab on galectin-10-His

| Kd [µM] | koff [s⁻¹] | Binder |
| --- | --- | --- |
| 0.147 | 0.00248 | B5 |
| 0.188 | 0.00356 | B6 |
| 0.0107 | 0.000299 | B7 |
| 0.0134 | 0.000383 | B8 |

Target: T2, human galectin-10-His (recombinant …)
Test: BLI Octet RED96, galectin-10-His on anti-Penta-His tips, scFv periplasmic extract 1/10
Experimental: Briefly, galectin-10-His tagged diluted in Kinetic Buffer was captured on Anti-Penta His 1K sensor tips until an immobilization level of 1 nm was reached. Then, diluted periplasmic extracts (1/10) were applied and association/dissociation to immobilized galectin-10-His was measured using the ForteBio Data analysis 9.0 software (subtraction of the reference Tips, 1.1 binding model). During the screening, only the dissociation (off-rate) of the scFv can be determined since the effective concentration of the scFv is unknown and can vary a lot from clone to clone. […] Therefore, taking into consideration the ELISA and BLI data, a new panel of lead scFvs was selected.

| koff [s⁻¹] | Binder |
| --- | --- |
| 0.0082 | B1 |
| 0.0057 | B2 |
| 0.0058 | B3 |
| 0.016 | B4 |

From patent publication US20190367619A1 (ARGENX, published 2019)
